The supplement of paper PMC9170038

Test system: MS2 coat protein
Test: apparent KD of MS2 coat protein; designed switch direction (-1 OFF switch, 1 ON switch): -1; higher = weaker reporter binding
Summary of the method: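 Three titration conditions were used: no input, 200 uM small-molecule ligand, and an oligonucleotide input. In each, SNAP-549-labelled MS2 coat protein was raised from 0.7 or 1.5 nM, doubling, to 3 µM over designed RNA switches transcribed on Illumina chips by stalled E. coli RNA polymerase. Curve fits of normalised cluster fluorescence gave values whose per-design median over clusters is the apparent KD.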

[1] = input ligand: microRNA oligo, concentration not stated
[2] = Eterna round: R95, input ligand: microRNA oligo, concentration not stated
[3] = Eterna round: R95, input ligand: FMN 200 uM
[4] = Eterna round: R95, input ligand: none

## GCAGCAUAUGUAGGAUAUCUGCACGAUUAGUGCAGAGAAGGACAUGAGGAUCACCCAUGUAAUUAAGAUCAAUUAUUAAGCUGC [ENG1/4-A1] (Eterna round: R96, puzzle: Exclusion NG 1)
Input ligand: FMN 200 uM
  apparent KD of MS2 coat protein: 0.0333 µM
[1]
  apparent KD of MS2 coat protein: 0.0156 µM
Input ligand: none
  apparent KD of MS2 coat protein: 0.0228 µM

## GCAGCGUAUGUAGGAUAUCGGUCAGUUUCUGAUCGAGAAGGACAUGAGGAUCACCCAUGUAUAUUCCGUCGUGAGACGGGCUGC [JL ENG1 3.69] (Eterna round: R96, puzzle: Exclusion NG 1)
Input ligand: FMN 200 uM
  apparent KD of MS2 coat protein: 0.0236 µM
[1]
  apparent KD of MS2 coat protein: 0.0143 µM
Input ligand: none
  apparent KD of MS2 coat protein: 0.0184 µM

## GCAGGAUAAGUGAGGAUAUACCUCUGGAUACAGAGGUAGAAGGCACAUGAGGAUCACCCAUGUCUAUAACCUGC [Fiskers BMX 4 - 79] (puzzle: Brourd's mod of Exclusion 4)
[2]
  apparent KD of MS2 coat protein: 0.0125 µM

## GCAGGUUAAGUCAGGAUAUACCUAUGGAUACAUAGGUAGAAGGGACAUGAGGAUCACCCAUGUGACUCACCUGC [Fiskers BMX 4 - 59] (puzzle: Brourd's mod of Exclusion 4)
[2]
  apparent KD of MS2 coat protein: 0.0251 µM

## GCAUGCUGAGUUAGGAUAUGCUAGCGUUGCCGCUAGCAGAAGGAACAUGAGGAUCACCCAUGUUAGCAUGCAGU [eternacac ex4r4 #2] (Eterna round: R97, puzzle: Brourd's mod of Exclusion 4)
Input ligand: FMN 200 uM
  apparent KD of MS2 coat protein: 0.016 µM
Input ligand: none
  apparent KD of MS2 coat protein: 0.014 µM

## GCAUGGAAAGUGAGGAUAUACCACUGGAUACAGUGGUAGAAGGCACAUGAGGAUCACCCAUGUUCCUACCAUGC [Fiskers BMX 4 - 39] (puzzle: Brourd's mod of Exclusion 4)
[2]
  apparent KD of MS2 coat protein: 0.015 µM

## GCAUUCUGAGGAUAUACAUGAGGAUCACCCAUGUUGAGAAAUAAGAAUAAGUACUUAAGUAGAAGGCAGAGUGC [JR_Ex3_Sub074] (Eterna round: R97, puzzle: Exclusion 3)
Input ligand: FMN 200 uM
  apparent KD of MS2 coat protein: 0.0616 µM
Input ligand: none
  apparent KD of MS2 coat protein: 0.0158 µM

## GCCACCACAUGAGGAUCAAACAUGAGGAUCACCCAUGUAUAACAAGCUUUUUGCUCGUCUUAUAAAUAUGUGGUGGC [Electric Eye 4 - Jieux - Sensor, turn-off variant 1] (Eterna round: R97, puzzle: Sensor, turn-off variant 1)
Input ligand: FMN 200 uM
  apparent KD of MS2 coat protein: 0.014 µM
Input ligand: none
  apparent KD of MS2 coat protein: 0.0153 µM

## GCCAGAGCAGGAUAUUCAGUAUCACACAUGAGGAUCACCCAUGUCCACGGAAACGUGGAGGGAGAAGGGCUCUGGC [Mat - Exclusion 5 - Eli mod - D96] (puzzle: Exclusion 5)
[3]
  apparent KD of MS2 coat protein: 0.0356 µM
[2]
  apparent KD of MS2 coat protein: 0.126 µM
[4]
  apparent KD of MS2 coat protein: 0.157 µM

## GCCCAGCUAGGAUAUCGCACUGCAGACAUGAGGAUCACCCAUGUGAUGAGGUCUGAAUUCCGAGAAGGAGCAUGGA [Isedzaqu] (puzzle: Exclusion 5)
[3]
  apparent KD of MS2 coat protein: 0.0666 µM
[2]
  apparent KD of MS2 coat protein: 0.0221 µM
[4]
  apparent KD of MS2 coat protein: 0.0267 µM

## GCCCUUAUUGUUAGGAUAUAACGGAAAUACAACCGUUAGAAGGAACAUGAGGAUCACCCAUGUGCCAUACAGCC [Eternabot (Original) Solution 39] (Eterna round: R97, puzzle: Brourd's mod of Exclusion 4)
Input ligand: FMN 200 uM
  apparent KD of MS2 coat protein: 0.119 µM
Input ligand: none
  apparent KD of MS2 coat protein: 0.0295 µM

## GCCUCACAUGAGGAUCACCCAUGUCAGGAUAUCUAAGGCGAGGUGCAGGCACUUCGUGAGAGAAGGGACGUCAA [Ercecequ] (puzzle: Exclusion 1)
[2]
  apparent KD of MS2 coat protein: 0.018 µM

## GCCUUAUCCGUCAGGAUAUACAGCCGCUCCCUGUUGUAGAAGGGACAUGAGGAUCACCCAUGUACGUACCACCC [alecazam9] (Eterna round: R97, puzzle: Brourd's mod of Exclusion 4)
Input ligand: FMN 200 uM
  apparent KD of MS2 coat protein: 0.0291 µM
Input ligand: none
  apparent KD of MS2 coat protein: 0.0311 µM

## GCGAAAGCAACAAGUGAAAACAUGAGGAUCACCCAUGUCCUCAUUUGCUCGUCUUAUAAGCUAUGCGAAAGCAUAGC [Sensor 3, v1 - 10] (puzzle: Sensor v3, turn-off variant 1)
[3]
  apparent KD of MS2 coat protein: 0.0524 µM
[2]
  apparent KD of MS2 coat protein: 0.511 µM
[4]
  apparent KD of MS2 coat protein: 0.0744 µM

## GCGAAAGCAAGCAAGUGAAACAUGAGGAUCACCCAUGUCCUCAUUUGCUCGUCUUAUAAGCUAUGCGAAAGCAUAGC [Sensor 3, v1 - 2] (puzzle: Sensor v3, turn-off variant 1)
[3]
  apparent KD of MS2 coat protein: 0.0139 µM
[2]
  apparent KD of MS2 coat protein: 0.22 µM
[4]
  apparent KD of MS2 coat protein: 0.0105 µM

## GCGAAAGCAAGCAAGUGAAACAUGAGGAUCACCCAUGUCCUCGUUUGCUCGUCUUAUAAGCUAUGCGAAAGCAUAGC [Sensor 3, v1 - 4] (puzzle: Sensor v3, turn-off variant 1)
[3]
  apparent KD of MS2 coat protein: 0.0129 µM
[2]
  apparent KD of MS2 coat protein: 0.105 µM
[4]
  apparent KD of MS2 coat protein: 0.0102 µM

## GCGCAAACGCCAAAAGGCGAAACAACAUGAGGAUCACCCAUGUAGGAUAUCGAUUGCUUUGCAGUCGAGAAGGACAAAAUGCGC [JL ENG3 3.80 Mod 6] (Eterna round: R96, puzzle: Exclusion NG 3)
Input ligand: FMN 200 uM
  apparent KD of MS2 coat protein: 0.0116 µM
[1]
  apparent KD of MS2 coat protein: 0.0106 µM
Input ligand: none
  apparent KD of MS2 coat protein: 0.0157 µM

## GCGCAAACGCCAAAAGGCGAAACAACAUGAGGAUCACCCAUGUAGGAUAUCGAUUGCUUUGCAGUCGAGAAGGACAUGAUGCGC [JL ENG3 3.80 Mod 2] (Eterna round: R96, puzzle: Exclusion NG 3)
Input ligand: FMN 200 uM
  apparent KD of MS2 coat protein: 0.0439 µM
[1]
  apparent KD of MS2 coat protein: 0.0185 µM
Input ligand: none
  apparent KD of MS2 coat protein: 0.0208 µM

## GCGCACCUACCAAAAGGUAGGUCAACAUGAGGAUCACCCAUGUAGGAUAUCGAUUGCUUUGCAGUCGAGAAGGAUAUGAUGCGC [JL ENG3 3.80 Mod 12] (Eterna round: R96, puzzle: Exclusion NG 3)
Input ligand: FMN 200 uM
  apparent KD of MS2 coat protein: 0.0272 µM
[1]
  apparent KD of MS2 coat protein: 0.0166 µM
Input ligand: none
  apparent KD of MS2 coat protein: 0.024 µM

## GCGCCAUCGUGAGAUGGCGUAACUACAUGAGGAUCACCCAUGUAGGAUAUCGAUUGCUUUGCAGUCGAGAAGGGCAAGGGAUUU [JL ENG3 3.88] (Eterna round: R96, puzzle: Exclusion NG 3)
Input ligand: FMN 200 uM
  apparent KD of MS2 coat protein: 0.0258 µM
[1]
  apparent KD of MS2 coat protein: 0.0147 µM
Input ligand: none
  apparent KD of MS2 coat protein: 0.0204 µM

## GCGCCAUCGUGAGAUGGCGUAAUUACAUGAGGAUCACCCAUGUAGGAUAUCGAUUGCUUUGCAGUCGAGAAGGGCGUGAUAAGU [JL ENG3 3.71] (Eterna round: R96, puzzle: Exclusion NG 3)
Input ligand: FMN 200 uM
  apparent KD of MS2 coat protein: 0.086 µM
[1]
  apparent KD of MS2 coat protein: 0.0595 µM
Input ligand: none
  apparent KD of MS2 coat protein: 0.0689 µM

## GCGCCAUCGUGAGAUGGCGUAAUUACAUGAGGAUCACCCAUGUAGGAUAUCGAUUGCUUUGCAGUCGAGAAGGGCGUGAUAAUU [JL ENG3 3.70] (Eterna round: R96, puzzle: Exclusion NG 3)
Input ligand: FMN 200 uM
  apparent KD of MS2 coat protein: 0.0777 µM
[1]
  apparent KD of MS2 coat protein: 0.0525 µM
Input ligand: none
  apparent KD of MS2 coat protein: 0.0755 µM
